# Numbering of substitutions follows the chain as printed. *1 amine or outer side, *2 acyl side, *3 side chain or, on linkers, in order; H or OH if unused. Where no end group is shown, it is not given here. Side-chain parts run from the residue outwards. [ ]: non-standard residue; d: D form. The star is where a group is joined. αMePhe(2-F) = C[C@](N)(Cc1ccccc1F)C(=O)O; γGlu = O=C(O)[C@H](CCC(=O)[*:2])N[*:1]; αMeY = C[C@](N)(Cc1ccc(O)cc1)C(=O)O; 4Pal = N[C@@H](Cc1ccncc1)C(=O)O; αMeL = CC(C)C[C@](C)(N)C(=O)O; Lauroyl = CCCCCCCCCCCC(=O)*; Orn = NCCC[C@H](N)C(=O)O; AEEA = NCCOCCOCC(=O)O; Aib = CC(C)(N)C(=O)O
# B1: Y-Aib-EGT-αMeF(2F)-TSD-4Pal-SI-αMeL-LD-Orn-IAQ-Aib-EFIK((2-[2-(2-Amino-ethoxy)-ethoxy]-acetyl)2-(γ-Glu)-CO-(CH2)12-CO2H)-αMeY-LIK((2-[2-(2-Amino-ethoxy)-ethoxy] … (peptide)
# peptide: YXEGTXTSDXSIXLDXIAQXEFIKXLIKGGPSSGAPPPS
# modifications: Aib2, αMeF(2F)6, 4Pal10, αMeL13, Orn16, Aib20, K24(Z1), αMeY25, K28(Z1), C-term NH2; Z1=AEEA2-(γ-Glu)-CO-(CH2)12-CO2H
# B2: Y-Aib-EGT-αMeF(2F)-TSD-4Pal-SI-αMeL-LD-Orn-IAQ-Aib-K((2-[2-(2-Amino-ethoxy)-ethoxy]-acetyl)2-(γ-Glu)-CO-(CH2)12-CO2H)FI-(D-Glu)-αMeY-LIEGGPSSGAPPPSK((2-[2-(2-Am … (peptide)
# peptide: YXEGTXTSDXSIXLDXIAQXKFIXXLIEGGPSSGAPPPSK
# modifications: Aib2, αMeF(2F)6, 4Pal10, αMeL13, Orn16, Aib20, K21(Z1), D-Glu24, αMeY25, K40(Z1), C-term NH2; Z1=AEEA2-(γ-Glu)-CO-(CH2)12-CO2H
# B3: Y-Aib-EGT-αMeF(2F)-TSD-4Pal-Aib-I-αMeL-LD-Orn-K((2-[2-(2-Amino-ethoxy)-ethoxy]-acetyl)2-(γ-Glu)-CO-(CH2)10-CH3)AQ-Aib-EFI-(D-Glu)-αMeY-LIEGGPSSGAPPPSK((2-[2-(2- … (peptide)
# peptide: B2 peptide with S11X, I17K, K21E
# modifications: Aib2, αMeF(2F)6, 4Pal10, Aib11, αMeL13, Orn16, K17(Z1), Aib20, D-Glu24, αMeY25, K40(Z1), C-term NH2; Z1=AEEA2-(γ-Glu)-CO-(CH2)10-CH3
# B4: Y-Aib-EGT-αMeF(2F)-TSD-4Pal-SI-αMeL-LD-Orn-K((2-[2-(2-Amino-ethoxy)-ethoxy]-acetyl)2-(γ-Glu)-CO-(CH2)10-CH3)AQ-Aib-EFI-(D-Glu)-αMeY-LIEGGP S SGAPPP … (peptide)
# peptide: B2 peptide with I17K, K21E
# modifications: Aib2, αMeF(2F)6, 4Pal10, αMeL13, Orn16, K17(Z1), Aib20, D-Glu24, αMeY25, K40(Z1), C-term NH2; Z1=AEEA2-(γ-Glu)-CO-(CH2)10-CH3
# B5: Y-Aib-EGT-αMeF(2F)-TSD-4Pal-Aib-I-αMeL-LD-Orn-K((2-[2-(2-Amino-ethoxy)-ethoxy]-acetyl)2-(γ-Glu)-CO-(CH2)10-CH3)AQ-Aib-Orn-FI-(D-Glu)-αMeY-LIEGGPSSGAPPPSK((2-[2- … (peptide)
# peptide: B2 peptide with S11X, I17K, K21X
# modifications: Aib2, αMeF(2F)6, 4Pal10, Aib11, αMeL13, Orn16, K17(Z1), Aib20, Orn21, D-Glu24, αMeY25, K40(Z1), C-term NH2; Z1=AEEA2-(γ-Glu)-CO-(CH2)10-CH3
# B6: Y-Aib-EGT-αMeF(2F)-TSDY-Aib-I-αMeL-LD-Orn-K((2-[2-(2-Amino-ethoxy)-ethoxy]-acetyl)2-(γ-Glu)-CO-(CH2)10-CH3)AQ-Aib-EFI-(D-Glu)-αMeY-LIEGGPSSGAPPPSK((2-[2-(2-Amin … (peptide)
# peptide: B2 peptide with X10Y, S11X, I17K, K21E
# modifications: Aib2, αMeF(2F)6, Aib11, αMeL13, Orn16, K17(Z1), Aib20, D-Glu24, αMeY25, K40(Z1), C-term NH2; Z1=AEEA2-(γ-Glu)-CO-(CH2)10-CH3
# B7: Y-Aib-EGT-αMeF(2F)-TSD-4Pal-Aib-I-αMeL-LD-Orn-K((2-[2-(2-Amino-ethoxy)-ethoxy]-acetyl)-(y-Glu)-(10-(4-carboxyphenoxy)decanoyl))AQ-Aib-EFI-(D-Glu)-αMeY-LIEGGPSSG … (peptide)
# peptide: B2 peptide with S11X, I17K, K21E
# modifications: Aib2, αMeF(2F)6, 4Pal10, Aib11, αMeL13, Orn16, K17(Z1), Aib20, D-Glu24, αMeY25, K40(Z1), C-term NH2; Z1=AEEA-(γ-Glu)-(10-(4-carboxyphenoxy)decanoyl)
# B8: Y-Aib-EGT-αMeF(2F)-TSD-4Pal-Aib-I-αMeL-LD-Orn-K((2-[2-(2-Amino-ethoxy)-ethoxy]-acetyl)3-(γ … (peptide)
# peptide: B2 peptide with S11X, I17K, K21X
# modifications: Aib2, αMeF(2F)6, 4Pal10, Aib11, αMeL13, Orn16, K17(Z1), Aib20, Orn21, D-Glu24, αMeY25, K40(Z1), C-term NH2; Z1=AEEA3-(γ-Glu)-CO-(CH2)10-CH3
# B9: Y-Aib-EGT-αMeF(2F)-TSD-4Pal-Aib-I-αMeL-LD-Orn-K((2-[2-(2-Amino-ethoxy)-ethoxy]-acetyl)3-(γ-Glu)-CO-(CH2)10-CH3)AQ-Aib-EFI-(D-Glu)-αMeY-LIEGGPSSGAPPPSK((2-[2-(2- … (peptide)
# peptide: B2 peptide with S11X, I17K, K21E
# modifications: Aib2, αMeF(2F)6, 4Pal10, Aib11, αMeL13, Orn16, K17(Z1), Aib20, D-Glu24, αMeY25, K40(Z1), C-term NH2; Z1=AEEA3-(γ-Glu)-CO-(CH2)10-CH3
# Molecular target: T1, human GIP receptor (human, UniProt P48546 22-466)
# T1 construct: whole, on cells; also called hGIPR; human glucose-dependent insulinotropic polypeptide receptor
# T1 sequence (looked up): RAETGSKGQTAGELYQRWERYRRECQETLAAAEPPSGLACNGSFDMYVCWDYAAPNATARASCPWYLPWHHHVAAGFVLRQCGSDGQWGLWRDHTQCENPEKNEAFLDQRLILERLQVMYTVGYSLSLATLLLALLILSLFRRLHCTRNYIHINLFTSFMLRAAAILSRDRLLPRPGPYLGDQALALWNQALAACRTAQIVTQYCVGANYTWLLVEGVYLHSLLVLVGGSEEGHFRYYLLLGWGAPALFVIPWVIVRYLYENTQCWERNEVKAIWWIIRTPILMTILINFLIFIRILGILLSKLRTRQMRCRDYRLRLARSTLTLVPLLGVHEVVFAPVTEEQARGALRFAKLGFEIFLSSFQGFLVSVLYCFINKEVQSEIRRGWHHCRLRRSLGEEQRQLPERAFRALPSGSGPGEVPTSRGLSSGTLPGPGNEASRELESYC
# Experiment: SPA competition vs [125I]-GIP, hGIPR membranes
row,Binder,Ki [nM]
1,B1,0.12
2,B2,0.107
3,B3,0.0163
4,B4,0.0291
5,B5,0.0174
6,B6,0.0228
7,B7,0.053
8,B8,0.0091
9,B9,0.0206
10,Y[Aib]EGT[αMePhe(2-F)]TSDK([AEEA-AEEA-γGlu-Lauroyl])[Aib]I[αMeL]LD[Orn]K([AEEA-AEEA-γGlu-Lauroyl])AQ[Aib][4Pal]FI[dE][αMeY]LIEGGPSSGAPPPS-NH2,0.0152

# Molecular target: T2, human glucagon receptor (human, UniProt P47871 26-477)
# T2 construct: whole, on cells; also called hGCGR; hGcgR
# Experiment: SPA competition vs [125I]-Gcg, hGcgR membranes
# Experimental: The binding buffer contains 25 mM 4-(2-hydroxyethyl)-1-piperazineethanesulfonic acid (HEPES), pH 7.4, 2.5 mM CaCl₂, 1 mM MgCh, 0.1% (w/v) bacitracin (Research Products), 0.003% (w/v) Polyoxyethylenesorbitan monolaurate (TWEEN®-20), and Roche Complete™ Protease Inhibitors without EDTA. […] Plates are sealed and mixed on a plate shaker (setting 6) for 1 minute and read with a PerkinElmer Trilux MicroBeta® scintillation counter after 12 hours of incubation/settling time at room temperature.
# Data are analyzed using four-parameter (curve maximum, curve minimum, IC₅₀, Hill slope) nonlinear regression routines (Genedata Screener, version 12.0.4, Genedata AG, Basal, Switzerland). […] Values for Kᵢ are reported as the geometric mean, with error expressed as the standard error of the mean (SEM) and n is equal to the number of independent replicates (determined in assays performed on different days).
# T2 sequence (P47871 26-477): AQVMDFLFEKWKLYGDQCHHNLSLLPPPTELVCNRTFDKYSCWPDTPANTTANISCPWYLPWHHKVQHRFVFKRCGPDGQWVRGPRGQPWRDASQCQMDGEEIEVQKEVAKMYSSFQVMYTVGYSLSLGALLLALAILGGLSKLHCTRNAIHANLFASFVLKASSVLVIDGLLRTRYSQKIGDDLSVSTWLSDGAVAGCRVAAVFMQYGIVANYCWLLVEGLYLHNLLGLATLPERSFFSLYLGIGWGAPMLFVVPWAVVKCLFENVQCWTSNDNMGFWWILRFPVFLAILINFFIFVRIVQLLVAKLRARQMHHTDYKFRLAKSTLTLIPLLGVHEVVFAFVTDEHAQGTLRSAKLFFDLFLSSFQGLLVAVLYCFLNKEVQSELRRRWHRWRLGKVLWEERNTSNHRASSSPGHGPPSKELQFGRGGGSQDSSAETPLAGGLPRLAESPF
row,Binder,Ki [nM]
1,B1,151
2,B2,206
3,B3,6.28
4,B4,13.9
5,B5,3.59
6,B6,2.84
7,B7,360
8,B8,14.4
9,B9,16
10,Y[Aib]EGT[αMePhe(2-F)]TSDK([AEEA-AEEA-γGlu-Lauroyl])[Aib]I[αMeL]LD[Orn]K([AEEA-AEEA-γGlu-Lauroyl])AQ[Aib][4Pal]FI[dE][αMeY]LIEGGPSSGAPPPS-NH2,51.8

# Molecular target: T3, human GLP-1 receptor (human, UniProt P43220 24-463)
# T3 construct: whole, on cells; also called hGLP-1R; human glucagon-like peptide-1 receptor
# Experiment: SPA competition vs [125I]-GLP-1, hGLP-1R membranes
# Procedure, shortened: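 Competition binding in 25 mM HEPES pH 7.4, 2.5 mM CaCl₂, 1 mM MgCl₂, 0.1% bacitracin, 0.003% TWEEN-20, EDTA-free protease inhibitors. IC₅₀ from four-parameter nonlinear fit; Kᵢ given as geometric mean ± SEM, n = independent replicates on different days.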
row,Binder,Ki [nM]
1,B1,1.67
2,B2,2.8
3,B3,0.168
4,B4,0.194
5,B5,0.0684
6,B6,0.137
7,B7,0.765
8,B8,0.122
9,B9,0.219
10,Y[Aib]EGT[αMePhe(2-F)]TSDK([AEEA-AEEA-γGlu-Lauroyl])[Aib]I[αMeL]LD[Orn]K([AEEA-AEEA-γGlu-Lauroyl])AQ[Aib][4Pal]FI[dE][αMeY]LIEGGPSSGAPPPS-NH2,0.156

# From patent publication US20230265151A1, “GIP/GLP1 CO-AGONIST COMPOUNDS” (priority 2020, published 2023)
